Experimental data as given in patent US20230374147A1.

Target: His-tagged mouse BCMA (Acro Biosystems, BCA-M52H3) (mouse) (UniProt O88472)
Test: ELISA, hybridoma supernatant, coated His-tagged antigen

His-tagged mouse BCMA (Acro Biosystems, BCA-M52H3) (mouse), sequence (O88472 1-49 limits assumed): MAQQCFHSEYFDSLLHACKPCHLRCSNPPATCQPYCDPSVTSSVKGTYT

B1: 539-SP5-D7 (antibody produced by the hybridoma) (antibody, V domains shown)
VH: EVMLVDSGGNLVKPGGSLKLSCAASGFTFSNYVISWVRQTPEKRLEWVATISTVGTNTYYPDSVRGRFTISRDNAENTLYLQMSSLRSEDTAIYYCSRHKYGYDDPSYAMDYWGQGTSVTVSS
VL: QLVLTQSSSASFSLGASAKLTCTLSSQHSTYTIEWYQQQPLKPPKYVMELKKDGSHSTGDGIPDRFSGSSSGADRYLSISNIQAEDEAIYICGVGDTVKEQFVYVFGGGTKVTVL
ELISA values (OD 450 nm): 0.025 OD
